The supplement of paper PMC10567573

B1: TMEM106C (parent)
chain: YVTTNVSLIPPRSEQLVNFTGKAE

Variants of: B1
Test: protein stability index of a GFP-peptide fusion (GPS, HEK-293T) (PSI 1-6); higher = more stable
Conditions: c terminus: a fixed tail appended
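Further: lentivirally expressed fusions sorted by FACS into six bins by GFP to DsRed ratio, PSI derived from sequencing read proportions per bin multiplied by bin number.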

Protein stability index of substitutions, site by site:
N5: A 1.91; C 2.28; D 1.96; E 2.05; F 2.64; G 1.22; H 1.66; I 2.24; K 2.41; L 2.32; M 2.16; P 2.67; Q 2.71; R 2.17; S 1.63; T 2.52; V 1.69; W 3.52; Y 2.98
V6: A 1.86; C 1.82; D 2.37; E 2.36; F 3.64; G 1.77; H 1.59; I 1.86; K 1.87; L 2.06; M 1.75; N 2.26; P 2; Q 1.68; R 1.92; S 1.91; T 2.02; W 2.57; Y 2.76
S7: A 1.31; C 2.56; D 2.37; E 2.13; F 1.83; G 2.36; H 2.29; I 3.34; K 1.36; L 2.45; M 1.57; N 2.18; P 2.81; Q 2.27; R 2.13; T 2.64; V 1.79; W 1.54; Y 3.23
L8: A 2.21; C 1.66; D 2.44; E 2.61; F 2.54; G 2.39; H 2.16; I 2.04; K 1.71; M 2.5; N 1.98; P 1.75; Q 1.53; R 1.6; S 2.26; T 1.95; V 1.67; W 2.1; Y 1.86
I9: A 2.94; C 1.2; D 2.24; E 2.25; F 1.7; G 1.6; H 2.46; K 2.02; L 1.7; M 1.86; N 2.17; P 1.81; Q 1.61; R 1.99; S 1.71; T 2.43; V 1.51; W 1.75; Y 2.32
P10: A 3.06; C 2.58; D 1.46; E 1.66; F 2.74; G 3.2; H 1.91; I 2.65; K 2.45; L 1.86; M 2.82; N 2.78; Q 2.26; R 3; S 1.82; T 2.42; V 3.38; W 2.56; Y 2.88
P11: A 1.6; D 2.11; E 1.72; F 3.09; G 2.51; H 1.97; I 2.3; K 2.01; L 1.51; M 1.45; N 2.37; Q 2.12; R 1.41; S 2.65; T 1.74; V 1.41; W 3.67; Y 2.75
R12: A 2.85; C 1.86; D 1.92; E 1.9; F 2.75; G 2.49; H 1.85; I 1.78; K 1.9; L 1.48; M 2.14; N 1.83; P 1.86; Q 2.1; S 2.23; T 2.09; V 2.08; W 2.19; Y 2.39
S13: A 2.22; C 2.24; D 1.57; E 1.88; F 2.56; G 1.86; H 2.34; I 1.62; K 1.55; L 2.32; M 2; N 2.32; P 1.64; Q 1.72; R 1.86; T 1.74
